Data from publication PMC6423285.

Columns and labels:
NBS1 = NBS1 (UniProt O60934); assay: peptide-bead pull-down from cell lysate; settings: reference: non-phospho peptide …; sites S462
NBS1 FHA+BRCT1/2 = NBS1 FHA+BRCT1/2 (UniProt O60934); assay: peptide-bead pull-down of purified GST fusion; settings: reference: non-phospho peptide …; sites S462

Substance: UFL1 (from UniProt O94874) pS462 peptide
- binding against the reference (NBS1): stronger
- binding against the reference (NBS1 FHA+BRCT1/2): stronger
